From paper PMC11140114, “Nanobodies as novel tools to monitor the mitochondrial fission factor Drp1” (Life Science Alliance, 2024) come the findings set out here.

Assay [1] addresses recombinant human dynamin-related protein 1 (Drp1), isoform 1 (Homo sapiens, isoform 1, UniProt O00429).
The target of assay [2] is T1, Drp1 isoform 2, endogenous in HeLa cells (Homo sapiens (HeLa), UniProt O00429-3, strain).
T1 construct: also called isoform 2 of Drp1; source: endogenous, HeLa soluble protein fraction
Briefly: affinity purification with mass spectrometry; D7 and D63 nanotraps against GFP-Trap, soluble protein fractions of HEK293, HeLa and U2OS cells, three replicates; label-free quantification; Drp1 captured by the immobilised Nb. Particulars: one partner purified.

For assay [3], the target named is T2, GFP-labelled Drp1 deletion construct GTPase-MD-VD (Homo sapiens, UniProt O00429).
T2 construct: Drp1 (DNM1L), human; source: HEK293, transiently transfected, soluble protein fraction
Description: pull-down; domain mapping: D7 or D63 nanotrap (Nb on NHS-sepharose) incubated overnight at 4°C with soluble protein fractions of HEK293 cells transiently expressing GFP-labelled Drp1 constructs; immunoblot with anti-GFP. The settings on record: one partner purified.

Assay [4] deals with T3, GFP-labelled Drp1 deletion construct GTPase (Homo sapiens, UniProt O00429).
T3 construct: Drp1 (DNM1L), human; also called N-terminal GTPase domain; source: HEK293, transiently transfected, soluble protein fraction
The description is as above. The settings on record: one partner purified.

In assay [5] the target is T4, GFP-labelled Drp1 deletion construct GTPase-MD (Homo sapiens, UniProt O00429).
T4 construct: Drp1 (DNM1L), human; source: HEK293, transiently transfected, soluble protein fraction
The assay is described as above. The settings on record: one partner purified.

recombinant human dynamin-related protein 1 (Drp1), isoform 1, sequence (O00429 whole entry, canonical isoform): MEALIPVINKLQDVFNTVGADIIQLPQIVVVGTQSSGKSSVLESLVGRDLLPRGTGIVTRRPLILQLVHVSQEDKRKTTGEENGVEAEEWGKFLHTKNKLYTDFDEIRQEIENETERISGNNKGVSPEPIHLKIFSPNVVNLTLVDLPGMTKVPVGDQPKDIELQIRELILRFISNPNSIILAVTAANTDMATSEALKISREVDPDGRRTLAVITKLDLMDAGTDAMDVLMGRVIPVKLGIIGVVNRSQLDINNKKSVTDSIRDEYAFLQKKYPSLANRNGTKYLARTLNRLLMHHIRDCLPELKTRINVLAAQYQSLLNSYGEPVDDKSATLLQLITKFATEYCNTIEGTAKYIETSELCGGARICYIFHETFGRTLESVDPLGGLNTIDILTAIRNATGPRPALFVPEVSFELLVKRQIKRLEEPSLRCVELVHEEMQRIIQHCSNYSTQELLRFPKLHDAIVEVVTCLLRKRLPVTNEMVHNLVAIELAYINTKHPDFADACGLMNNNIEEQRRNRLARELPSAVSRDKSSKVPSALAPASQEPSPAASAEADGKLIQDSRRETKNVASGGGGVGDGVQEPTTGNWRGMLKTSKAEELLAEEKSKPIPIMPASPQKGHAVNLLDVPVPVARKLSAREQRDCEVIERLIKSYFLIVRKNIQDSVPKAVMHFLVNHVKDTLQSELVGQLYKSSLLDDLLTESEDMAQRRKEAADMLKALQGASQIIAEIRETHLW

B1: D258 (VHH)
VHH: EVQLQESGGESVQPGGSLRLSCVVSGTTFSTVAMGWYREVPGKKRELVARISSRGVTFYSDSVEGRFTISKDNDKSTLYLQMNSLETEDTAMYFCAAAGNSEVVLFRPKYWGQGTPVTVSS
Consider B1, for which the binding result in assay [1] is “binds”.

B2: D187 (VHH)
VHH: HVQLVESGGGLVQAGESLKLSCVASGIPFSSRAMGWYRQTPGKDRELVARISVRGVTFYADSVTGRFAISRDNDRSTLYLQMNSLKSEDTAIYFCAAGDNTQTVLTRPAHWGQGTQVTVSS
B2: in assay [1], the binding result was “binds”.

B3: Drp1-specific nanobody D63 (VHH)
VHH: QVQLVESGGDLVQPGGSLKLSCAVSGVSDSLSSFYLMAWHRQAPGKQREMIADIVSGKATYADSVKGRFTISRDNAENTAYLQMNSLKPEDTAVYYCNVLIQNRSTFQSYWGQGTQVTVSS
notes: Selected by phage display from an immunised alpaca; also called D63 Nb; D63 nanotrap (immobilised on NHS-sepharose); source: E. coli periplasmic extract for the protein ELISA
As for B3, the binding result in assay [2] is given as “binds”.

B4: D219 (VHH)
chain: QVQLVESGGGMVQSGGSLSLSCAASGFAFSLYEMSWIRQAQGRGPEWVASINPGSSRTYYTDSVKGRFTISRDNDKNILYLKMNSLKPEDTALYYCARGRTLGIGISSDKGSQVTVSS
On to B4, for which the binding result in assay [1] is reported as “binds”.

B5: D49 (VHH)
VHH: EVQLVESGGGWVQPGGSLRLSCSASGFTFRDYVMTWVRQTPGRGLEWVSAIDGSGSKINYLDSVKGRFTISRDNTQAMLYLQMNSLRPDDTAVYYCARKGRGGLGEGTYWGKGTQVTVSS
Turning to B5, the binding result in assay [1] is reported as “binds”.

B6: Drp1-specific nanobody D7 (VHH)
VHH: QVQLVESGGGLVQPGGSLRLSCVASGFDFSTYSMTWHRQVLGKERELVASITPGGSRTNVADSVKGRFTISRDNAKNMLYLQMDRLKPEDTGMYYCAQGGYYAEPDYWGKGTRVTVSS
notes: Selected by phage display from an immunised alpaca; also called D7 Nb; D7 nanotrap (immobilised on NHS-sepharose); source: E. coli periplasmic extract for the protein ELISA
Regarding B6, the binding result in assay [2], in assay [3], in assay [4] and in assay [5] was “binds” throughout.

B7: D246 (VHH)
VHH: EVQLVESGGGLAQPGGSLRLSCAASGPTDNIYTMGWYRQPPGQSRQFVASVVWSTGVKAYAKFVGGRFRITKDSAKRTVDLQMDSLQPEDTAIYFCNLNDRVTPMSERDYWGQGTPVTVSS
In the case of B7, the binding result in assay [1] was “binds”.

B8: D193 (VHH)
VHH: EVQLVDSGGGLVQSGGSLTLACAASVSIDEFPAMTWYRQATGKQRELVGVITKGGATKLADSAKGRFTISRDNAKNMVYLQMTSLKPDDTAVYYCSVPNKVMGWGPDDWWGQGSQVTVSS
In the case of B8, in assay [1], the binding result was “binds”.
